Assay results taken from PMC2137936, “Molecular Analysis of Thymopentin Binding to HLA-DR Molecules” (PLoS ONE, 2007).
No end group written: not given here.

Molecular target: human class II major histocompatibility complex DR molecules (HLA-DR) on EBV-transformed B cells (human (endogenous in EBV-transformed B …, UniProt P01903 26-254; P01911 30-266)
Experiment: flow cytometry on cells; 3x10^5 living EBV-transformed B cells incubated with various concentrations of FITC-labeled TP5 in PBS pH 7.4 with 1% BSA, 2 h, 37°C; washed; MFI read; apparent Kd from a double-reciprocal plot of the equilibrium data
Details: one partner purified

B1: FITC-labeled thymopentin (TP5) (peptide)
peptide: RKDVY
modifications: also: FITC label, position not given here
notes: thymopentin (TP5), synthetic pentapeptide corresponding to position 32~36 of thymopoietin; also called FITC-labeled TP5; fluorescent-labeled TP5; source: synthetic peptide, conjugated with FITC (Sigma) and purified
Kd: 7.2 µM
